Measured values as given in patent publication US7718626B2, “ErbB3 binding protein compositions and methods of use” (University of Maryland, Baltimore, priority 2005, dated 2010).

How the values were obtained:
[1] = system: AR and POV-1 protein in LNCaP cells; assay: Western blot analysis of LNCaP ebp1 transfectants; type: cell-based, human
Protocol: Western Blot Analysis: Briefly, total cell extracts were prepared by direct lysis of cells with buffer containing 50 mM Tris-HCl (pH 7.4), 1 mM EDTA, 250 mM NaCl, 1% Triton X-100, 0.5 mM dithiothreitol (DTT) and 1 mM phenylmethylsulfonyl (PMSF). Protein concentrations were measured using a detergent compatible kit (BioRad, Hercules, Calif.). Proteins were resolved by SDS-PAGE and analyzed by Western blotting as described (Xia et al., 2001, Analysis of the Expression Pattern of Ebp1, an ErbB-3-Binding Protein, Biochem. Biophys. Res. Commun., 289:240-244). The AR antibody was from Santa Cruz Biotechnology (Santa Cruz, Calif.), the Ebp1 antibody from Upstate (Lake Placid, N.Y.), the polyclonal antibody to actin from Sigma (St. Louis, Mo.), and the POV-1 antibody was a gift of Dr. Rodrigo Chugai, National Cancer Institute. The results of the microarray analysis were validated using real-time quantitative reverse-transcription PCR, Western blot, and ELISA methods. […] The expression of POV-1 mRNA and protein were each decreased about two-fold. PSA secretion in the conditioned media of ebp1 and vector control cells was assessed by ELISA. […] Finally, […]-2 mRNA expression was decreased approximately 40%.

[2] = system: secreted PSA of LNCaP cells; assay: PSA secretion in conditioned media by ELISA; type: cell-based, human; conditions: ebp1 transfectants vs controls
Protocol: Measurement of PSA levels: Serum PSA levels were determined using a PSA ELISA kit from DSL, Inc (Webster, Tex.). […] Following a 1 h incubation and extensive washing of the plate, the wells were treated for 30 min with a second anti-PSA antibody labeled with horseradish peroxidase. After washing, the wells were treated with a tetramethylbendizine substrate for 10 min, and absorbance was read at 450 nm. The results of the microarray analysis were validated using real-time quantitative reverse-transcription PCR, Western blot, and ELISA methods. […] The expression of POV-1 mRNA and protein were each decreased about two-fold. PSA secretion in the conditioned media of ebp1 and vector control cells was assessed by ELISA. […] Finally, […]-2 mRNA expression was decreased approximately 40%.

[3] = system: LNCaP cells; assay: Cell growth in complete media; type: cell-based, human
Protocol: (§1) Cell Growth Assays: To measure growth in complete media, cells (2×10^4) were seeded in triplicate in individual wells of 12-well tissue culture plates in RPMI-1640 with 10% FBS and cultured for the indicated number of days. Cells were trypsinized, stained with Trypan Blue (0.4%), and counted in a hemacytometer. For soft agar growth assays, increasing concentrations of cells (as indicated) were plated in 35 mm petri dishes in complete media and 0.3% Difco Bacto Agar over an 0.5% agar layer. Colonies were counted after 10 days of incubation. For studies assessing the effect of dihydrotestosterone (DHT) on cell growth, cells (2×10^4) were plated in 12-well plates in complete media. After a 24-hour attachment period, the medium was replaced with steroid-free medium [phenol red-free RPMI 1640 and 5% charcoal-stripped FBS (Sigma)] for 48 hours. The final concentration of testosterone in the steroid-reduced media was less than 5 pM. After 48 hours of steroid depletion, cells were re-fed with fresh steroid-reduced medium with or without the indicated concentrations of DHT and/or bicalutamide (10 μM), and total cell numbers were assessed 7 days later.
Growth Characteristics of LNCaP ebp1 transfectants: The growth rate of the ebp1-transfected cells in complete media was compared to that of cells transfected with the empty vector. […]

[4] = system: LNCaP cells; assay: Soft agar colony growth assay; type: cell-based, human; conditions: highest cell concentration tested, ten days
Protocol: as §1
The soft agar growth of ebp1 transfectants was also examined. LNCaP vector controls and ebp1 transfectants were seeded at concentrations between 1×10^4 and 1×10^5 cells per dish and colony growth in soft agar assessed ten days later. […]

[5] = system: LNCaP xenografts; assay: LNCaP xenograft tumorigenicity in SCID mice; type: in vivo
Protocol: In Vivo Studies in SCID Mice: Male SCID mice, 4-6 weeks of age, were purchased from the National Cancer Institute (Frederick, Md.). Animals were housed in a pathogen-free environment under controlled conditions of light and humidity and received food and water ad libitum. LNCaP cells were grown in complete medium and 800 μg/ml of G418 until 80% confluent. Cells were scraped into phosphate-buffered saline (PBS), collected by centrifugation, and suspended in Matrigel (10 mg/ml) (Collaborative Research, Waltham, Mass.) at 1×10^7 cells/ml. Each mouse received s.c. injections at one site on each flank with 100 μl of cell suspension. Tumors were measured three times a week with calipers, and tumor volumes were calculated by the formula 0.5236×r1^2×r2 (r1<r2). The animal protocols were approved by the Institutional Animal Care and Use Committee at the University of Maryland.
After sacrifice, tumors were excised and fixed in 10% buffered neutral formalin. Sections of formalin-fixed, paraffin-embedded tissues were cut to 5 μm. Slides were stained with an Ebp1 antibody (Upstate) diluted 1:50 using the standard avidin-biotin method (Vector Labs, Burlinghame, Calif.). Peroxidase activity was localized by the diaminobenzidine tetrachloride peroxidase reaction with Harris hematoxylin as a counterstain.
Ebp1 expression suppresses growth of prostate cancer xenografts: The effect of ectopic expression of ebp1 on the tumorigenicity of LNCaP cells was examined. Ebp1- and vector-transfected cells were injected subcutaneously into SCID mice, and tumor growth was monitored. Tumor growth was first noted in both groups at day 20. […] At the end of the study, tumors had developed at more than 85% of the sites injected with the vector control cells, while less than 40% of sites inoculated with ebp1 transfectants developed tumors. This difference was significant at p=0.04 by Fisher's exact test, two-sided. […] Average tumor volumes observed at the end of the study were 268±70 mm^3 as compared with 1214±168 mm^3 for the vector controls (p=0.0003). In addition, the growth rate was also slower for ebp1 transfectants at all time points measured (p=0.0001). […] Thus, cells that grew to form tumors had lost overexpression of the transgene.

B1: Ebp1: ErbB3 binding protein (SEQ ID NO: 2), tested by stable ectopic expression (ebp1 transfection) in LNCaP cells (protein)
chain: MSGEDEQQEQTIAEDLVVTKYKMGGDIANRVLRSLVEASSSGVSVLSLCEKGDAMIMEETGKIFKKEKEMKKGIAFPTSISVNNCVCHFSPLKSDQDYILKEGDLVKIDLGVHVDGFIANVAHTFVVDVAQGTQVTGRKADVIKAAHLCAEAALRLVKPGNQNTQVTEAWNKVAHSFNCTPIEGMLSHQLKQHVIDGEKTIIQNPTDQQKKDHEKAEFEVHEVYAVDVLVSSGEGKAKDAGQRTTIYKRDPSKQYGLKMKTSRAFFSEVERRFDAMPFTLRAFEDEKKARMGVVECAKHELLQPFNVLYEKEGEFVAQFKFTVLLMPNGPMRITSGPFEPDLYKSEMEVQDAELKALLQSSASRKTQKKKKKKASKTAENPTSGETLEENEAGD
modifications: Homo Sapien
B1 was tested, and the AR protein decrease ([1]; Western blot, LNCaP ebp1 transfectants) was “more than five-fold”, the POV-1 protein decrease ([1]; ebp1 transfectants) was “about two-fold” and the “secreted PSA protein downregulation” value [2] was 10 fold. For the same molecule, the “growth rate in complete media” value ([3]; ebp1 transfectants vs vector control, p<0.05) was “significantly decreased”, the doubling time ([3]; ebp1 transfectants, complete media (vector control 48 hours)) was 72 h and the “decrease of colony growth in soft agar” value [4] was “approximately 90%”. The tumor growth rate ([5]; all time points measured, vs vector controls, p=0.0001) was “slower”, the “inoculation sites with tumors” value ([5]; day 20, s.c. in SCID mice (vector controls 35%)) was 10% and the “inoculation sites that developed tumors” value ([5]; end of the study (vector control more than 85%), p=0.04) was “less than 40%”. For the same molecule, the average tumor volume ([5]; end of the study (vector controls 1214±168 mm^3), p=0.0003) was 268±70 mm^3.
